Measured values reported in patent publication US20220025021A1 (BETH ISRAEL DEACONESS MEDICAL CENTER, published 2022).

What was measured:
Assay in all cases: cell-based or functional assay
[1] = biological target: HIV-1 pseudovirus 263-8 (HIV-1)
[2] = biological target: HIV-1 pseudovirus SC05.8C11.2344 (HIV-1)
[3] = biological target: HIV-1 pseudovirus X1193_c1 (HIV-1)
[4] = biological target: HIV-1 pseudovirus Ce1176_A3 (HIV-1)
[5] = biological target: HIV-1 pseudovirus AC10.0.29 (HIV-1)
[6] = biological target: HIV-1 pseudovirus 6952.v1.c20 (HIV-1)
[7] = biological target: HIV-1 envelope glycoprotein of pseudovirus SC422661.8 (HIV-1)
[8] = biological target: HIV-1 envelope glycoprotein of pseudovirus RHPA4259.7 (HIV-1)
[9] = biological target: HIV-1 envelope glycoprotein of pseudovirus DU172.17 (HIV-1)
[10] = biological target: HIV-1 envelope glycoprotein of pseudovirus BB1012-11.TC21 (HIV-1)
[11] = biological target: HIV-1 envelope glycoprotein of pseudovirus CNE52 (HIV-1)
[12] = biological target: HIV-1 envelope glycoprotein of pseudovirus 0260.v5.c36 (HIV-1)

Binder | IC50 (neutralization in TZM.bl cells) [1] [µg/mL] | IC80 (neutralization in TZM.bl cells) [1] [µg/mL] | IC50 (neutralization in TZM.bl cells) [2] [µg/mL] | IC80 (neutralization in TZM.bl cells) [2] [µg/mL] | IC50 (neutralization in TZM.bl cells) [3] [µg/mL] | IC80 (neutralization in TZM.bl cells) [3] [µg/mL] | IC50 (neutralization in TZM.bl cells) [4] [µg/mL] | IC80 (neutralization in TZM.bl cells) [4] [µg/mL] | IC50 (neutralization in TZM.bl cells) [7] [µg/mL] | IC80 (neutralization in TZM.bl cells) [7] [µg/mL] | IC50 (neutralization in TZM.bl cells) [8] [µg/mL] | IC80 (neutralization in TZM.bl cells) [8] [µg/mL] | IC50 (neutralization in TZM.bl cells) [9] [µg/mL] | IC80 (neutralization in TZM.bl cells) [9] [µg/mL] | IC50 (neutralization in TZM.bl cells) [10] [µg/mL] | IC80 (neutralization in TZM.bl cells) [10] [µg/mL] | IC50 (neutralization in TZM.bl cells) [11] [µg/mL] | IC80 (neutralization in TZM.bl cells) [11] [µg/mL] | IC50 (neutralization in TZM.bl cells) [12] [µg/mL] | IC80 (neutralization in TZM.bl cells) [12] [µg/mL] | further results
MS-91 (antibody, V domains shown) VH: QVQLVQSGPEVRKPGTSVKVSCKASGYTLKTYDLHWVRSVPGQGLQWMGWISHEGDKKVIVERFKAKVTIDWDRSTNTAYLQLSGLTSGDTAVYYCAKGSKHRLRDYALYDDDGALNWAVDVDYLSNLEFWGQGTAVTVSS VL: DFVLTQSPLSLSVTPGESASISCKSSHSLIHGDRNNYLAWYVQKPGRSPQLLIYLASSRASGVPDRFSGSGSDTDFTLKISRVETEDVGTYYCMQGRESPWTFGQGTKVDIKR | 0.02 | 0.075 | 0.848 | 2.84 | 0.057 | 0.388 | 0.213 | 2.04 |  |  |  |  |  |  |  |  |  |  |  |  | IC50 (neutralization in TZM.bl cells) [5]: 0.07 µg/mL; IC80 (neutralization in TZM.bl cells) [5]: 0.632 µg/mL; IC50 (neutralization in TZM.bl cells) [6]: 2.62 µg/mL; IC80 (neutralization in TZM.bl cells) [6]: > 25 µg/mL
MS-92 (antibody, V domains shown) VH: QVQLVQSGPEVRKPGTSVKVSCKAPGNTLKTYDLHWVRSVPGQGLEWMGWISHEGDKKVIVERFKAKVTIDRDRSTNTAYLQLSGLRSGDTAVYYCAKGSKHRLRDYALYDDDGALNWAVDVDYLSNLEFWGQGTAVTVSS VL: DIVLTQSPHSLSVTPGESASISCKSSHSLIHGDRNNYLAWYVQKPGRSPQLLIYLASSRASGVPDRFSGSGSDKDFTLKISRVETEDVGTYYCMQGRESPWTFGQGTKVDIKR | 0.024 | 0.208 | 1.54 | 4.09 | 0.11 | 0.529 | 0.6 | 9.78 |  |  |  |  |  |  |  |  |  |  |  |  | IC50 (neutralization in TZM.bl cells) [5]: 0.051 µg/mL; IC80 (neutralization in TZM.bl cells) [5]: 0.446 µg/mL; IC50 (neutralization in TZM.bl cells) [6]: 7.38 µg/mL; IC80 (neutralization in TZM.bl cells) [6]: > 25 µg/mL
MS-112 (antibody) VH: not shown VL: DFVLTQSPHSLSVTPGEPASISCKSSHSLIHGDRNNYLAWYVQKPGRSPQLLIYLASSRASGVPDRFSGSGSGKDFTLKISRVEAEDVGTYYCMQGRESPWTFGQGTKVDIKRTVAAPSVFIFPPSDEQLKSGTASVVCLLNNFYPREAKVQWKVDNALQSGNSQESVTEQDSKDSTYSLSSTLTLSKADYEKHKVYACEVTHQGLSSPVTKSFNRGEC |  |  |  |  |  |  |  |  | 0.275 | 1.44 | 0.195 | 0.661 | 1.77 | 4.91 | 0.032 | 0.129 | 0.133 | 1.16 | 0.022 | 0.059 | 
MS-113 (antibody) VH: not shown VL: DIVLTQSPLSLSVTPGEPASISCKSSHSLIHGDRNNYLAWYVQKPGRSPQLLIYLASSRASGVPDRFSGSGSGKDFTLKISRVETEDVGTYYCMQGRESPWTFGQGTKVDIKRTVAAPSVFIFPPSDEQLKSGTASVVCLLNNFYPREAKVQWKVDNALQSGNSQESVTEQDSKDSTYSLSSTLTLSKADYEKHKVYACEVTHQGLSSPVTKSFNRGEC |  |  |  |  |  |  |  |  | 0.354 | 2.12 | 0.206 | 0.696 | 2.22 | 8.27 | 0.026 | 0.109 | 0.502 | 5.04 | 0.026 | 0.092 | 
MS-114 (antibody) VH: not shown VL: DIVLTQSPLSLSVTPGEPASISCKSSHSLIHGDRNNYLAWYVQKPGRSPQLLIYLASSRASGVPDRFSGSGSDKDFTLKISRVEAEDVGTYYCMQGRESPWTFGQGTKVDIKRTVAAPSVFIFPPSDEQLKSGTASVVCLLNNFYPREAKVQWKVDNALQSGNSQESVTEQDSKDSTYSLSSTLTLSKADYEKHKVYACEVTHQGLSSPVTKSFNRGEC |  |  |  |  |  |  |  |  | 0.236 | 2.21 | 0.237 | 1.24 | 1.66 | 7.74 | 0.033 | 0.136 | 0.444 | 3.61 | 0.03 | 0.105 | 
MS-117 (antibody) VH: not shown VL: DFVLTQSPLSLSVTPGEPASISCKSSHSLIHGDRNNYLAWYVQKPGRSPQLLIYLASSRASGVPDRFSGSGSGKDFTLKISRVEAEDVGTYYCMQGRESPWTFGQGTKVDIKRTVAAPSVFIFPPSDEQLKSGTASVVCLLNNFYPREAKVQWKVDNALQSGNSQESVTEQDSKDSTYSLSSTLTLSKADYEKHKVYACEVTHQGLSSPVTKSFNRGEC |  |  |  |  |  |  |  |  | 0.168 | 1.33 | 0.201 | 0.715 | 1.91 | 6.49 | 0.03 | 0.099 | 0.206 | 1.73 | 0.021 | 0.057 | 
MS-118 (antibody) VH: not shown VL: DIVLTQSPLSLSVTPGEPASISCKSSHSLIHGDRNNYLAWYVQKPGRSPQLLIYLASSRASGVPDRFSGSGSGKDFTLKISRVEAEDVGTYYCMQGRESPWTFGQGTKVDIKRTVAAPSVFIFPPSDEQLKSGTASVVCLLNNFYPREAKVQWKVDNALQSGNSQESVTEQDSKDSTYSLSSTLTLSKADYEKHKVYACEVTHQGLSSPVTKSFNRGEC |  |  |  |  |  |  |  |  | 0.244 | 2.05 | 0.164 | 0.785 | 2.12 | 8.29 | 0.036 | 0.117 | 0.42 | 3.4 | 0.019 | 0.069 | 
MS-90 (antibody) VH: not shown VL: DFVLTQSPLSLSVTPGESASISCKSSHSLIHGDRNNYLAWYVQKPGRSPQLLIYLASSRASGVPDRFSGSGSDKDFTLKISRVETEDVGTYYCMQGRESPWTFGQGTKVDIKRTVAAPSVFIFPPSDEQLKSGTASVVCLLNNFYPREAKVQWKVDNALQSGNSQESVTEQDSKDSTYSLSSTLTLSKADYEKHKVYACEVTHQGLSSPVTKSFNRGEC | 0.021 | 0.109 | 1.5 | 3.84 | 0.114 | 0.399 | 0.22 | 4.24 |  |  |  |  |  |  |  |  |  |  |  |  | IC50 (neutralization in TZM.bl cells) [5]: 0.059 µg/mL; IC80 (neutralization in TZM.bl cells) [5]: 0.592 µg/mL; IC50 (neutralization in TZM.bl cells) [6]: 2.68 µg/mL; IC80 (neutralization in TZM.bl cells) [6]: > 25 µg/mL
MS-116 (antibody) VH: not shown VL: DIVLTQSPHSLSVTPGEPASISCKSSHSLIHGDRNNYLAWYVQKPGRSPQLLIYLASSRASGVPDRFSGSGSGKDFTLKISRVEAEDVGTYYCMQGRESPWTFGQGTKVDIKRTVAAPSVFIFPPSDEQLKSGTASVVCLLNNFYPREAKVQWKVDNALQSGNSQESVTEQDSKDSTYSLSSTLTLSKADYEKHKVYACEVTHQGLSSPVTKSFNRGEC |  |  |  |  |  |  |  |  | 0.185 | 1.06 | 0.187 | 0.663 | 1.97 | 6.71 | 0.03 | 0.139 | 0.321 | 3.09 | 0.024 | 0.067 | 
MS-115 (antibody) VH: not shown VL: DIVLTQSPLSLSVTPGESASISCKSSHSLIHGDRNNYLAWYVQKPGRSPQLLIYLASSRASGVPDRFSGSGSGKDFTLKISRVEAEDVGTYYCMQGRESPWTFGQGTKVDIKRTVAAPSVFIFPPSDEQLKSGTASVVCLLNNFYPREAKVQWKVDNALQSGNSQESVTEQDSKDSTYSLSSTLTLSKADYEKHKVYACEVTHQGLSSPVTKSFNRGEC |  |  |  |  |  |  |  |  | 0.202 | 1.03 | 0.237 | 0.647 | 1.83 | 5.04 | 0.024 | 0.106 | 0.489 | 5.46 | 0.025 | 0.067 | 
